Test results taken from US20090004190A1, “Rage Fusion Proteins And Methods Of Use” (priority 2006, published 2009).

Tested on: transgenic mice expressing human Swedish mutant APP
Assay: Mouse model of AD (APP transgenic mice): amyloid deposition and Morris water maze
Assay type: in vivo
Method: Experiments were performed to evaluate whether TTP-4000 could affect amyloid formation and cognitive dysfunction in a mouse model of AD. The experiments utilized transgenic mice expressing the human Swedish mutant amyloid precursor protein (APP) under the control of the PDGF-B chain promoter. Over time, these mice generate high levels of the RAGE ligand, amyloid beta (Aβ).
The APP mice (male) used in this experiment were designed by microinjection of the human APP gene (with the Swedish and London mutations) into mouse eggs under the control of the platelet-derived growth factor B (PDGF-B) chain gene promoter. The mice were generated on a C57BL/6 background and were developed by Molecular Therapeutics Inc. Animals were fed ad libitum and maintained by brother sister mating. The mice generated from this construct develop amyloid deposits starting at 6 months of age. Animals were aged for 6 months and then maintained for 90 days and sacrificed for amyloid quantification.
APP transgenic mice were administered vehicle or TTP4000 every other day [qod (i.p.)] for 90 days starting at 6 months of age. At the end of the experiment, animals were sacrificed and examined for Aβ plaque burden in the brain (i.e., plaque number). A 6-month control APP group was used to determine the baseline of amyloid deposits. In addition, at the end of the study, the animals were subjected to behavioral (Morris water maze) analysis. The investigators were blinded to the study compounds. Samples were given to the mice at 0.25 ml/mouse/every other day.
For histological examination, the animals were anesthetized with an intraperitoneal injection (IP) of sodium pentobarbital (50 mg/kg). The animals were transcardially perfused with 4° C., phosphate-buffered saline (PBS) followed by 4% paraformaldehyde. The brains were removed and placed in 4% paraformaldehyde over night. The brains were processed to paraffin and embedded. Ten serial 30-μm thick sections through the brain were obtained. Sections were subjected to primary antibody overnight at 4° C. (Aβ peptide antibody) in order to detect the amyloid deposits in the brain of the transgenic animals (Guo et al., J. Neurosci., 22:5900-5909 (2002)). Sections were washed in Tris-buffered saline (TBS) and secondary antibody was added and incubated for 1 hour at room temperature. After washing, the sections were incubated as instructed in the Vector ABC Elite kit (Vector Laboratories) and stained with […] (DAB). The reactions were stopped in water and cover-slipped after treatment with xylene. The amyloid area in each section was determined with a computer-assisted image analysis system, consisting of a Power Macintosh computer equipped with a Quick Capture frame grabber card, Hitachi CCD camera mounted on an Olympus microscope and camera stand. NIH Image Analysis Software, v. 1.55 was used. The images were captured and the total area of amyloid was determined over the ten sections. A single operator blinded to treatment status performed all measurements. Summing the amyloid volumes of the sections and dividing by the total number of sections was done to calculate the amyloid volume.
For quantitative analysis, an enzyme-linked immunosorbent assay (ELISA) was used to measure the levels of human total Aβ, Aβtotal and Aβ1-42 in the brains of APP transgenic mice (Biosource International, Camarillo, Calif.). Aβtotal and Aβ1-42 were extracted from mouse brains by guanidine hydrochloride and quantified as described by the manufacturer. […]

B1: TTP-4000: four domain RAGE fusion protein: human RAGE V and C1 domains with interdomain linkers (to residue 251) fused to human IgG1 CH2 and CH3; SEQ ID NO: 34/56 (protein, listed as Homo sapiens)
chain: QNITARIGEPLVLKCKGAPKKPPQRLEWKLNTGRTEAWKVLSPQGGGPWDSVARVLPNGSLFLPAVGIQDEGIFRCQAMNRNGKETKSNYRVRVYQIPGKPEIVDSASELTAGVPNKVGTCVSEGSYPAGTLSWHLDGKPLVPNEKGVSVKEQTRRHPETGLFTLQSELMVTPARGGDPRPTFSCSFSPGLPRHRALRTAPIQPRVWEPVPLEEVQLVVEPEGGAVAPPSVFLFPPKPKDTLMISRTPEVTCVVVDVSHEDPEVKFNWYVDGVEVHNAKTKPREEQYNSTYRVVSVLTVLHQDWLNGKEYKCKVSNKALPAPIEKTISKAKGQPREPQVYTLPPSRDELTKNQVSLTCLVKGFYPSDIAVEWESNGQPENNYKTTPPVLDSDGSFFLYSKLTVDKSRWQQGNVFSCSVMHEALHNHYTQKSLSLSPGK
- inflammatory cytokines IL-1 and TNF-α (data not shown): can reduce
- Aβ plaques in the brain (treated for 3 months, vs vehicle and human IgG1, FIG. 14A): fewer Aβ plaques
- cognitive dysfunction (Morris water maze) (treated for 3 months, vs vehicle and human IgG1, FIG. 14B): less cognitive dysfunction
